T1: cyno GPRC5D (cyno, UniProt Q9NZD1 1-343 (human entry))
T1 chain: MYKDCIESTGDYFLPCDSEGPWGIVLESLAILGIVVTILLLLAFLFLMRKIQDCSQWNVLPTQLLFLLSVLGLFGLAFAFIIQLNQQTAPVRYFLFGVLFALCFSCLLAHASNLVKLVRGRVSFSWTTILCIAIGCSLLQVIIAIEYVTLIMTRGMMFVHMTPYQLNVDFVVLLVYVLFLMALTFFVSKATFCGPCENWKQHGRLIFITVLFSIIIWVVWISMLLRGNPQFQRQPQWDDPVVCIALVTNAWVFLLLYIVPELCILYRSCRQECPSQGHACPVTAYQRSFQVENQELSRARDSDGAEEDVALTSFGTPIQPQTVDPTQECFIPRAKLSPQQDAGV

T2: murine GPRC5D (murine, UniProt Q9JIL6 1-344)
T2 construct: also called mouse GPRC5D
T2 sequence: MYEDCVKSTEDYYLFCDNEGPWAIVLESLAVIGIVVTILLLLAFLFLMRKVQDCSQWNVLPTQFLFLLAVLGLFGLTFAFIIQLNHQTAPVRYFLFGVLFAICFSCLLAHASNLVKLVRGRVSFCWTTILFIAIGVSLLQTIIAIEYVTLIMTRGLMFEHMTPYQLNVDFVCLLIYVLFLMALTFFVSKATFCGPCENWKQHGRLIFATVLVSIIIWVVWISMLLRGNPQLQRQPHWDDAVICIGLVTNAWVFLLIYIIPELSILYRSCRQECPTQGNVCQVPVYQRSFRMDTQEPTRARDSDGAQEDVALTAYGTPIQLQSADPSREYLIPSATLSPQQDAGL

B1: GCDB45 (bispecific antibody, IgG4, V domains shown)
VH 1: EVQLVQSGAEVKKPGESLKISCKGSGYSFTSYWIGWVRQMPGKGLEWMGIIYPGDSDTRYSPSFQGQVTISADKSISTAYLQWSSLKASDTAMYYCARIGFYGRSFRIFDYWGQGTLVTVSS
VL 1: EIVLTQSPATLSLSPGERATLSCRASQSVSSYLAWYQQKPGQAPRLLIYDASNRATGIPARFSGSGSGTDFTLTISSLEPEDFAVYYCQQRSNWPLTFGQGTKVEIK
VH 2: EVQLVESGGGLVQPGGSLRLSCAASGFTFNTYAMNWVRQAPGKGLEWVARIRSKYNNYATYYAASVKGRFTISRDDSKNSLYLQMNSLKTEDTAVYYCARHGNFGNSYVSWFAYWGQGTLVTVSS
VL 2: QTVVTQEPSLTVSPGGTVTLTCRSSTGAVTTSNYANWVQQKPGQAPRGLIGGTNKRAPGTPARFSGSLLGGKAALTLSGVQPEDEAEYYCALWYSNLWVFGGGTKLTVL
notes: IgG4-PAA bispecific; also called GC5B332 x CD3B219
B2: GCDB61 (bispecific antibody, IgG4, V domains shown)
VH 1: EVQLVQSGAEVKKPGESLKISCKGSGYSFTSYFIGWVRQMPGKGLEWMGIIYPGKSDTRYSPSFQGQVTISADKSISTAYLQWSSLKASDTAMYYCARVYSFGGRHKALFDYWGQGTLVTVSS
VL 1: EIVLTQSPATLSLSPGERATLSCRASQSVSSYLAWYQQKPGQAPRLLIYDASNRATGIPARFSGSGSGTDFTLTISSLEPEDFAVYYCQQRSNWPLTFGQGTKVEIK
VH 2: EVQLVESGGGLVQPGGSLRLSCAASGFTFNTYAMNWVRQAPGKGLEWVARIRSKYNNYATYYAASVKGRFTISRDDSKNSLYLQMNSLKTEDTAVYYCARHGNFGNSYVSWFAYWGQGTLVTVSS
VL 2: QTVVTQEPSLTVSPGGTVTLTCRSSTGAVTTSNYANWVQQKPGQAPRGLIGGTNKRAPGTPARFSGSLLGGKAALTLSGVQPEDEAEYYCALWYSNLWVFGGGTKLTVL
notes: IgG4-PAA by Fab arm exchange; CD3 arm also F405L, R409K; also called GC5B483 x CD3B219
B3: GCDB44 (bispecific antibody, IgG4, V domains shown)
VH 1: not shown
VL 1: EIVLTQSPATLSLSPGERATLSCRASQSVSSYLAWYQQKPGQAPRLLIYDASNRATGIPARFSGSGSGTDFTLTISSLEPEDFAVYYCQQRSNWPLTFGQGTKVEIK
VH 2: EVQLVESGGGLVQPGGSLRLSCAASGFTFNTYAMNWVRQAPGKGLEWVARIRSKYNNYATYYAASVKGRFTISRDDSKNSLYLQMNSLKTEDTAVYYCARHGNFGNSYVSWFAYWGQGTLVTVSS
VL 2: QTVVTQEPSLTVSPGGTVTLTCRSSTGAVTTSNYANWVQQKPGQAPRGLIGGTNKRAPGTPARFSGSLLGGKAALTLSGVQPEDEAEYYCALWYSNLWVFGGGTKLTVL
notes: IgG4-PAA bispecific; also called GC5B320 x CD3B219
B4: GCDB53 (bispecific antibody, IgG4, V domains shown)
VH 1: not shown
VL 1: not shown
VH 2: EVQLVESGGGLVQPGGSLRLSCAASGFTFNTYAMNWVRQAPGKGLEWVARIRSKYNNYATYYAASVKGRFTISRDDSKNSLYLQMNSLKTEDTAVYYCARHGNFGNSYVSWFAYWGQGTLVTVSS
VL 2: QTVVTQEPSLTVSPGGTVTLTCRSSTGAVTTSNYANWVQQKPGQAPRGLIGGTNKRAPGTPARFSGSLLGGKAALTLSGVQPEDEAEYYCALWYSNLWVFGGGTKLTVL
notes: IgG4-PAA by Fab arm exchange; CD3 arm also F405L, R409K; also called GC5B465 x CD3B219
B5: GCDB32 (bispecific antibody, human IgG4 S228P, lambda, F234A L235A)
heavy 1: not shown
VL: not shown
heavy 2: EVQLVESGGGLVQPGGSLRLSCAASGFTFNTYAMNWVRQAPGKGLEWVARIRSKYNNYATYYAASVKGRFTISRDDSKNSLYLQMNSLKTEDTAVYYCARHGNFGNSYVSWFAYWGQGTLVTVSSASTKGPSVFPLAPCSRSTSESTAALGCLVKDYFPEPVTVSWNSGALTSGVHTFPAVLQSSGLYSLSSVVTVPSSSLGTKTYTCNVDHKPSNTKVDKRVESKYGPPCPPCPAPEAAGGPSVFLFPPKPKDTLMISRTPEVTCVVVDVSQEDPEVQFNWYVDGVEVHNAKTKPREEQFNSTYRVVSVLTVLHQDWLNGKEYKCKVSNKGLPSSIEKTISKAKGQPREPQVYTLPPSQEEMTKNQVSLTCLVKGFYPSDIAVEWESNGQPENNYKTTPPVLDSDGSFLLYSKLTVDKSRWQEGNVFSCSVMHEALHNHYTQKSLSLSLGK
light: QTVVTQEPSLTVSPGGTVTLTCRSSTGAVTTSNYANWVQQKPGQAPRGLIGGTNKRAPGTPARFSGSLLGGKAALTLSGVQPEDEAEYYCALWYSNLWVFGGGTKLTVLGQPKAAPSVTLFPPSSEELQANKATLVCLISDFYPGAVTVAWKADSSPVKAGVETTTPSKQSNNKYAASSYLSLTPEQWKSHRSYSCQVTHEGSTVEKTVAPTECS
notes: IgG4-PAA by Fab arm exchange; also called GC5B81 x CD3B219; copies: 1 + 1 + 1 + 1
B6: GCDB35 (bispecific antibody, IgG4)
heavy 1: not shown
VL: EIVLTQSPATLSLSPGERATLSCRASQSVSSYLAWYQQKPGQAPRLLIYDASNRATGIPARFSGSGSGTDFTLTISSLEPEDFAVYYCQQRSNWPLTFGQGTKVEIK
heavy 2: EVQLVESGGGLVQPGGSLRLSCAASGFTFNTYAMNWVRQAPGKGLEWVARIRSKYNNYATYYAASVKGRFTISRDDSKNSLYLQMNSLKTEDTAVYYCARHGNFGNSYVSWFAYWGQGTLVTVSSASTKGPSVFPLAPCSRSTSESTAALGCLVKDYFPEPVTVSWNSGALTSGVHTFPAVLQSSGLYSLSSVVTVPSSSLGTKTYTCNVDHKPSNTKVDKRVESKYGPPCPPCPAPEAAGGPSVFLFPPKPKDTLMISRTPEVTCVVVDVSQEDPEVQFNWYVDGVEVHNAKTKPREEQFNSTYRVVSVLTVLHQDWLNGKEYKCKVSNKGLPSSIEKTISKAKGQPREPQVYTLPPSQEEMTKNQVSLTCLVKGFYPSDIAVEWESNGQPENNYKTTPPVLDSDGSFLLYSKLTVDKSRWQEGNVFSCSVMHEALHNHYTQKSLSLSLGK
light: QTVVTQEPSLTVSPGGTVTLTCRSSTGAVTTSNYANWVQQKPGQAPRGLIGGTNKRAPGTPARFSGSLLGGKAALTLSGVQPEDEAEYYCALWYSNLWVFGGGTKLTVLGQPKAAPSVTLFPPSSEELQANKATLVCLISDFYPGAVTVAWKADSSPVKAGVETTTPSKQSNNKYAASSYLSLTPEQWKSHRSYSCQVTHEGSTVEKTVAPTECS
B7: GC5B590 (antibody, V domains shown)
VH: QVTLKESGPVLVKPTETLTLTCTVSGFSLTSYNVHWIRQPPGKALEWLAVIWAGGSTNYNSALKSRLTISKDTSKSQVVLTMTNMRAEDTATYYCARDGIRLRFAYWGQGTLVTVSS
VL: EIVMTQSPATLSVSPGERATLSCKASQNVATHVGWYQQKPGQAPRLLIYSASYRYSGIPARFSGSGSGTEFTLTISSLQSEDFAVYYCQQYNRYPYTFGQGTKLEIK
notes: GC5B540 PTM variant
B8: GC5B592 (antibody, V domains shown)
VH: QVTLKESGPVLVKPTETLTLTCTVSGFSLTSYNVHWIRQPPGKALEWLAVIWAGGSTNYNSALMSRLTISKDTSKSQVVLTMTNMRAEDTATYYCARDAIRLRFAYWGQGTLVTVSS
VL: EIVMTQSPATLSVSPGERATLSCKASQNVATHVGWYQQKPGQAPRLLIYSASYRYSGIPARFSGSGSGTEFTLTISSLQSEDFAVYYCQQYNRYPYTFGQGTKLEIK
notes: GC5B540 PTM variant
B9: GC5B594 (antibody, V domains shown)
VH: QVTLKESGPVLVKPTETLTLTCTVSGFSLTSYNVHWIRQPPGKALEWLAVIWAGGSTNYNSALKSRLTISKDTSKSQVVLTMTNMRAEDTATYYCARDAIRLRFAYWGQGTLVTVSS
VL: EIVMTQSPATLSVSPGERATLSCKASQNVATHVGWYQQKPGQAPRLLIYSASYRYSGIPARFSGSGSGTEFTLTISSLQSEDFAVYYCQQYNRYPYTFGQGTKLEIK
notes: GC5B540 PTM variant

Experiments:
[1] = molecular target: T1, cyno GPRC5D; assay: cell-based or functional assay
[2] = molecular target: T3, human GPRC5D (human, UniProt Q9NZD1 1-345); assay: FACS, MM1R, H929 and human GPRC5D HEK293 cells
T3 construct: on transfected HEK293/RBL cells or endogenous on myeloma cells (H929, MM1R, OPM2, LP1, JIM3, patient plasma cells); also called G protein-coupled receptor class C group 5 member D; hGPRC5D
T3 sequence (Q9NZD1 whole entry): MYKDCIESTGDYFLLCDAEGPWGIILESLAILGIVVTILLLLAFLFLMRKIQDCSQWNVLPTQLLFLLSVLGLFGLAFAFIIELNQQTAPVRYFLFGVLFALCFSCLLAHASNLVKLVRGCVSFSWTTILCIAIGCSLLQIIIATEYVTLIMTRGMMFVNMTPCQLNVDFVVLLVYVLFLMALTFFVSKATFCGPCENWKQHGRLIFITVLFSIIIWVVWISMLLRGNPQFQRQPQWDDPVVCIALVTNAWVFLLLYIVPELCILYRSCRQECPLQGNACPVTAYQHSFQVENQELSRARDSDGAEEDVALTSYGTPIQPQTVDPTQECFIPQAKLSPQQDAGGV

[3] = molecular target: T2, murine GPRC5D; assay: FACS, murine GPRC5D
[4] = molecular target: T3, human GPRC5D; assay: cell-based or functional assay
[5] = molecular target: T1, cyno GPRC5D; assay: cell-based or functional assay
[6] = molecular target: T3, human GPRC5D; assay: FACS binding to plasma cells in MM patient MM303BM bone marrow MNCs
[7] = molecular target: T3, human GPRC5D; assay: FACS binding to plasma cells in MM patient MM305BM bone marrow MNCs
[8] = molecular target: T3, human GPRC5D; assay: FACS titration, human GPRC5D HEK293 cells
[9] = molecular target: T3, human GPRC5D; assay: FACS, human GPRC5D cells

Binder	T cell mediated target cell killing, Cyno GPRC5D EC50 [1] [nM]	MFI [3] [MFI]	T-cell redirection cytotoxicity EC50, human GPRC5D HEK cells [4] [nM]	T-cell redirection cytotoxicity EC50, cyno GPRC5D HEK cells [5] [nM]	EC50 [6] [nM]	EC50 [7] [nM]	binding result [9]	other results
B1	2.82							binding result [2]: binds
B2		3550	0.03	1.22	5.53	6.93		
B3								binding result [8]: binds
B4		2660	0.08	0.36	3.98	10.2		
B5	0.19	1150	0.04	0.07	16.1	70.4		
B6	4.65							
B7							binds	
B8							binds	
B9							binds	
